Measured values as given in the supplement of paper PMC10567573.

B1: SNAP91 (parent)
chain: FAAPSPATTASPAKVDSSGVIDLF

Variants of: B1
Assay: protein stability index of a GFP-peptide fusion (GPS, HEK-293T) (PSI 1-6); higher = more stable
Details: c terminus: a fixed tail appended
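Note: lentivirally expressed fusions sorted by FACS into six bins by GFP to DsRed ratio, PSI derived from sequencing read proportions per bin multiplied by bin number.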

Row | Variant | protein stability index
1 | FAAPSPATTASPAKQDSSGVIDLF | 2.04
2 | FAAPSPATTASPAKEDSSGVIDLF | 3.03
3 | FAAPSPATTASPAKTDSSGVIDLF | 2.82
4 | FAAPSPATTASPAKPDSSGVIDLF | 2.65
5 | FAAPSPATTASPAKKDSSGVIDLF | 2.92
6 | FAAPSPATTASPAKLDSSGVIDLF | 2.23
7 | FAAPSPATTASPAKMDSSGVIDLF | 2.56
8 | FAAPSPATTASPAKIDSSGVIDLF | 2.24
9 | FAAPSPATTASPAKDDSSGVIDLF | 2.68
10 | FAAPSPATTASPAKYDSSGVIDLF | 1.98
11 | FAAPSPATTASPAKFDSSGVIDLF | 1.97
12 | FAAPSPATTASPAKADSSGVIDLF | 2.52
13 | FAAPSPATTASPAKGDSSGVIDLF | 2.41
14 | FAAPSPATTASPAKHDSSGVIDLF | 2.32
15 | FAAPSPATTASPAKRDSSGVIDLF | 2.6
16 | FAAPSPATTASPAKCDSSGVIDLF | 1.97
17 | FAAPSPATTASPAKWDSSGVIDLF | 2.1
18 | FAAPSPATTASPAKNDSSGVIDLF | 2.52
19 | FAAPSPATTASPAKSDSSGVIDLF | 2.93
20 | FAAPSPATTASPNKVDSSGVIDLF | 2.38
21 | FAAPSPATTASPPKVDSSGVIDLF | 3.09
22 | FAAPSPATTASPMKVDSSGVIDLF | 2.31
23 | FAAPSPATTASPCKVDSSGVIDLF | 2.29
24 | FAAPSPATTASPHKVDSSGVIDLF | 2.3

Row | Variant | protein stability index
25 | FAAPSPATTASPLKVDSSGVIDLF | 2.43
26 | FAAPSPATTASPGKVDSSGVIDLF | 1.98
27 | FAAPSPATTASPFKVDSSGVIDLF | 2.01
28 | FAAPSPATTASPKKVDSSGVIDLF | 3.05
29 | FAAPSPATTASPDKVDSSGVIDLF | 2.71
30 | FAAPSPATTASPTKVDSSGVIDLF | 2.33
31 | FAAPSPATTASPYKVDSSGVIDLF | 1.83
32 | FAAPSPATTASPSKVDSSGVIDLF | 2.25
33 | FAAPSPATTASPIKVDSSGVIDLF | 1.92
34 | FAAPSPATTASPWKVDSSGVIDLF | 2.12
35 | FAAPSPATTASPQKVDSSGVIDLF | 2.37
36 | FAAPSPATTASPVKVDSSGVIDLF | 2.79
37 | FAAPSPATTASPRKVDSSGVIDLF | 2.34
38 | FAAPSPATTASPEKVDSSGVIDLF | 2.61
39 | FAAPSPATTASPAKVDSGGVIDLF | 2.56
40 | FAAPSPATTASPAKVDSKGVIDLF | 2.46
41 | FAAPSPATTASPAKVDSEGVIDLF | 2.72
42 | FAAPSPATTASPAKVDSDGVIDLF | 2.97
43 | FAAPSPATTASPAKVDSLGVIDLF | 2.23
44 | FAAPSPATTASPAKVDSHGVIDLF | 2.12
45 | FAAPSPATTASPAKVDSFGVIDLF | 1.67
46 | FAAPSPATTASPAKVDSCGVIDLF | 2.1
47 | FAAPSPATTASPAKVDSAGVIDLF | 2.29
48 | FAAPSPATTASPAKVDSIGVIDLF | 1.9

Row | Variant | protein stability index
49 | FAAPSPALTASPAKVDSSGVIDLF | 2.27
50 | FAAPSPARTASPAKVDSSGVIDLF | 2.24
51 | FAAPSPAMTASPAKVDSSGVIDLF | 2.7
52 | FAAPSPAVTASPAKVDSSGVIDLF | 2.85
53 | FAAPSPAKTASPAKVDSSGVIDLF | 2.42
54 | FAAPSPASTASPAKVDSSGVIDLF | 2.52
55 | FAAPSPAQTASPAKVDSSGVIDLF | 2.54
56 | FAAPSPANTASPAKVDSSGVIDLF | 2.58
57 | FAAPSPAWTASPAKVDSSGVIDLF | 2.33
58 | FAAPSPAYTASPAKVDSSGVIDLF | 1.94
59 | FAAPSPATCASPAKVDSSGVIDLF | 2.43
60 | FAAPSPATRASPAKVDSSGVIDLF | 2.42
61 | FAAPSPATQASPAKVDSSGVIDLF | 2.46
62 | FAAPSPATSASPAKVDSSGVIDLF | 2.77
63 | FAAPSPATNASPAKVDSSGVIDLF | 2.58
64 | FAAPSPATLASPAKVDSSGVIDLF | 2.25
65 | FAAPSPATVASPAKVDSSGVIDLF | 2.61
66 | FAAPSPATMASPAKVDSSGVIDLF | 2.31
67 | FAAPSPATYASPAKVDSSGVIDLF | 1.67
68 | FAAPSPATGASPAKVDSSGVIDLF | 2.28
69 | FAAPSPATWASPAKVDSSGVIDLF | 3.89
70 | FAAPSPATDASPAKVDSSGVIDLF | 3.22
71 | FAAPSPATFASPAKVDSSGVIDLF | 1.63
72 | FAAPSPATKASPAKVDSSGVIDLF | 2.91

Row | Variant | protein stability index
73 | FAAPSPATHASPAKVDSSGVIDLF | 2.66
74 | FAAPSPATEASPAKVDSSGVIDLF | 2.77
75 | FAAPSPATIASPAKVDSSGVIDLF | 2.16
76 | FAAPSPATAASPAKVDSSGVIDLF | 3.02
77 | FAAPSPATTASPAKVDYSGVIDLF | 2.7
78 | FAAPSPATTASPAKVDPSGVIDLF | 2.39
79 | FAAPSPATTASPAKVDMSGVIDLF | 2.16
80 | FAAPSPATTASPAKVDASGVIDLF | 2.55
81 | FAAPSPATTASPAKVDFSGVIDLF | 2.21
82 | FAAPSPATTASPAKVDWSGVIDLF | 1.63
83 | FAAPSPATTASPAKVDHSGVIDLF | 2.71
84 | FAAPSPATTASPAKVDNSGVIDLF | 2.78
85 | FAAPSPATTASPAKVDGSGVIDLF | 2.33
86 | FAAPSPATTASPAKVDISGVIDLF | 1.7
87 | FAAPSPATTASPAKVDCSGVIDLF | 1.86
88 | FAAPSPATTASPAKVDVSGVIDLF | 2.17
89 | FAAPSPATTASPAKVDTSGVIDLF | 2.43
90 | FAAPSPATTASPAKVDDSGVIDLF | 2.55
91 | FAAPSPATTASPAKVDRSGVIDLF | 2.27
92 | FAAPSPATTASPAKVDESGVIDLF | 2.45
93 | FAAPSPATTASPAKVDKSGVIDLF | 2.29
94 | FAAPSPATTASPAKVDLSGVIDLF | 1.96
95 | FAAPSPATTASPAKVDQSGVIDLF | 2.52
96 | FAAPSPATTASPANVDSSGVIDLF | 2.52

Row | Variant | protein stability index
97 | FAAPSPATTASPALVDSSGVIDLF | 2.28
98 | FAAPSPATTASPAIVDSSGVIDLF | 2.61
99 | FAAPSPATTASPAQVDSSGVIDLF | 2.48
100 | FAAPSPATTASPACVDSSGVIDLF | 2.41
101 | FAAPSPATTASPAVVDSSGVIDLF | 2.77
102 | FAAPSPATTASPADVDSSGVIDLF | 2.47
103 | FAAPSPATTASPARVDSSGVIDLF | 2.28
104 | FAAPSPATTASPAPVDSSGVIDLF | 2.7
105 | FAAPSPATTASPAHVDSSGVIDLF | 2.46
106 | FAAPSPATTASPASVDSSGVIDLF | 2.29
107 | FAAPSPATTASPAYVDSSGVIDLF | 2.24
108 | FAAPSPATTASPAMVDSSGVIDLF | 2.3
109 | FAAPSPATTASPAFVDSSGVIDLF | 1.86
110 | FAAPSPATTASPAWVDSSGVIDLF | 1.58
111 | FAAPSPATTASPAAVDSSGVIDLF | 2.94
112 | FAAPSPATTASPAEVDSSGVIDLF | 2.81
113 | FAAPSPATTASPAGVDSSGVIDLF | 2.05
114 | FAAPSPATTASPATVDSSGVIDLF | 2.38
115 | FAAPSPATTASCAKVDSSGVIDLF | 1.85
116 | FAAPSPATTASKAKVDSSGVIDLF | 1.96
117 | FAAPSPATTASYAKVDSSGVIDLF | 1.97
118 | FAAPSPATTASAAKVDSSGVIDLF | 2.19
119 | FAAPSPATTASTAKVDSSGVIDLF | 2.15
120 | FAAPSPATTASGAKVDSSGVIDLF | 1.92

Row | Variant | protein stability index
121 | FAAPSPATTASLAKVDSSGVIDLF | 2.49
122 | FAAPSPATTASSAKVDSSGVIDLF | 2.32
123 | FAAPSPATTASFAKVDSSGVIDLF | 1.8
124 | FAAPSPATTASWAKVDSSGVIDLF | 2.04
125 | FAAPSPATTASDAKVDSSGVIDLF | 2.6
126 | FAAPSPATTASHAKVDSSGVIDLF | 2.27
127 | FAAPSPATTASEAKVDSSGVIDLF | 2.97
128 | FAAPSPATTASMAKVDSSGVIDLF | 2.17
129 | FAAPSPATTASRAKVDSSGVIDLF | 2.2
130 | FAAPSPATTASNAKVDSSGVIDLF | 2.6
131 | FAAPSPATTASQAKVDSSGVIDLF | 2.6
132 | FAAPSPATTASIAKVDSSGVIDLF | 2.08
133 | FAAPSPATTASVAKVDSSGVIDLF | 2.09
134 | FAAPSPATTAIPAKVDSSGVIDLF | 2.3
135 | FAAPSPATTAVPAKVDSSGVIDLF | 2.38
136 | FAAPSPATTAKPAKVDSSGVIDLF | 2.6
137 | FAAPSPATTADPAKVDSSGVIDLF | 2.73
138 | FAAPSPATTAHPAKVDSSGVIDLF | 2.08
139 | FAAPSPATTAGPAKVDSSGVIDLF | 2.45
140 | FAAPSPATTAEPAKVDSSGVIDLF | 2.69
141 | FAAPSPATTAFPAKVDSSGVIDLF | 1.96
142 | FAAPSPATTACPAKVDSSGVIDLF | 2.14
143 | FAAPSPATTAMPAKVDSSGVIDLF | 2.28
144 | FAAPSPATTAWPAKVDSSGVIDLF | 1.33

Row | Variant | protein stability index
145 | FAAPSPATTALPAKVDSSGVIDLF | 2.77
146 | FAAPSPATTAQPAKVDSSGVIDLF | 2.56
147 | FAAPSPATTARPAKVDSSGVIDLF | 2.45
148 | FAAPSPATTANPAKVDSSGVIDLF | 2.38
149 | FAAPSPATTATPAKVDSSGVIDLF | 2.48
150 | FAAPSPATTAAPAKVDSSGVIDLF | 2.47
151 | FAAPSPATTAYPAKVDSSGVIDLF | 2.35
152 | FAAPSPATTASPAKVQSSGVIDLF | 1.9
153 | FAAPSPATTASPAKVFSSGVIDLF | 1.68
154 | FAAPSPATTASPAKVSSSGVIDLF | 1.91
155 | FAAPSPATTASPAKVHSSGVIDLF | 2.82
156 | FAAPSPATTASPAKVTSSGVIDLF | 2.54
157 | FAAPSPATTASPAKVCSSGVIDLF | 1.54
158 | FAAPSPATTASPAKVMSSGVIDLF | 1.92
159 | FAAPSPATTASPAKVASSGVIDLF | 1.9
160 | FAAPSPATTASPAKVPSSGVIDLF | 2.19
161 | FAAPSPATTASPAKVVSSGVIDLF | 2.3
162 | FAAPSPATTASPAKVGSSGVIDLF | 2.11
163 | FAAPSPATTASPAKVESSGVIDLF | 2.17
164 | FAAPSPATTASPAKVRSSGVIDLF | 2.03
165 | FAAPSPATTASPAKVNSSGVIDLF | 2.53
166 | FAAPSPATTASPAKVKSSGVIDLF | 2.17
167 | FAAPSPATTASPAKVISSGVIDLF | 1.99
168 | FAAPSPATTASPAKVWSSGVIDLF | 1.46

Row | Variant | protein stability index
169 | FAAPSPATTASPAKVLSSGVIDLF | 2.6
170 | FAAPSPATTASPAKVYSSGVIDLF | 1.53
171 | FAAPSPATTWSPAKVDSSGVIDLF | 2.84
172 | FAAPSPATTISPAKVDSSGVIDLF | 2.42
173 | FAAPSPATTSSPAKVDSSGVIDLF | 2.32
174 | FAAPSPATTYSPAKVDSSGVIDLF | 1.72
175 | FAAPSPATTTSPAKVDSSGVIDLF | 2.36
176 | FAAPSPATTNSPAKVDSSGVIDLF | 2.59
177 | FAAPSPATTMSPAKVDSSGVIDLF | 2.24
178 | FAAPSPATTQSPAKVDSSGVIDLF | 2.27
179 | FAAPSPATTESPAKVDSSGVIDLF | 2.56
180 | FAAPSPATTHSPAKVDSSGVIDLF | 2.29
181 | FAAPSPATTRSPAKVDSSGVIDLF | 1.99
182 | FAAPSPATTGSPAKVDSSGVIDLF | 1.64
183 | FAAPSPATTFSPAKVDSSGVIDLF | 1.92
184 | FAAPSPATTLSPAKVDSSGVIDLF | 2.74
185 | FAAPSPATTCSPAKVDSSGVIDLF | 1.94
186 | FAAPSPATTDSPAKVDSSGVIDLF | 2.57
187 | FAAPSPATTKSPAKVDSSGVIDLF | 2.23
188 | FAAPSPATTVSPAKVDSSGVIDLF | 2.94
